What was measured:
[1] = target: MBP-tagged core BbRAG1L (cBbRAG1L; aa 468-1136) (Branchiostoma belcheri); test: SEC-MALS
[2] = target: BbRAG1L NBD* domain (purified NBD* protein) (Branchiostoma belcheri); test: SEC-MALS

Row | stoichiometry N (BbRAG2L per cBbRAG1L (2:2)) [1] | stoichiometry N [2] | Substance
1 | 1 |  | MBP-tagged full length BbRAG2L (natural protein)
2 |  | 2 | BbRAG1L NBD* domain (purified NBD* protein) (domain or fragment)
